Test [1] concerns the target T1, HisKIX (UniProt P45481 586-672).
T1 construct: range 586-672; the residue numbers fit mouse CBP; also called His-tagged CBP KIX domain; CBP KIX; not shown: amino-terminal hexahistidine tag and linker of pET15b
As to the kind of experiment: FP, fluorescein-labelled peptide titrated with HisKIX, 25 C.

Test [2] deals with T1, HisKIX. As to the kind of experiment: FP with HisKIX; end of the range assigned by Table 1.
The target of test [3] is T1, HisKIX. Put plainly: FP with HisKIX.

Broadly, the Kd is a measure of binding affinity in units of concentration. Read a high Kd as lower affinity.

Square brackets hold non-standard residues; d marks the D form. Ends that are not written are not given here. * marks the point of attachment. Fluorescein(5-NHCOCH2) = O=C(C*)Nc1ccc2c(c1)C(=O)OC21c2ccc(O)cc2Oc2cc(O)ccc21; pS = N[C@@H](COP(=O)(O)O)C(=O)O

T1 sequence (P45481 586-672): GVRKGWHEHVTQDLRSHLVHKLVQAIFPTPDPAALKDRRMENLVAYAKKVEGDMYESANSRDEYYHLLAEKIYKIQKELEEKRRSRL

For H-GASPHTSSGDDAPVRRL[pS]FFDILLDLYLDAPGVC(Fluorescein(5-NHCOCH2))-NH2 (designed binder, not fully specified, also called PPKID3 (phosphorylated)) [PPKID3^P], the affinity in the test with HisKIX [1], expressed as Kd, was 1.2 µM. For the same molecule, in the test with HisKIX [2], the “fold enhancement in affinity upon phosphorylation” value lay in the range of 6 to 41 fold, the “fold higher affinity than KID-B^P” value fell in the range of 43 to 87 fold and the ΔΔG upon phosphorylation was -1 kcal/mol.

B1: PPKID5^U (designed binder)
peptide: GLSWPTYHGDDAPVRRLSFFYILLDLYLDAPGVC(Fluorescein(5-NHCOCH2))-NH2
modifications: N-terminus assumed
SMILES: CC[C@H](C)[C@H](NC(=O)[C@H](Cc1ccc(O)cc1)NC(=O)[C@H](Cc1ccccc1)NC(=O)[C@H](Cc1ccccc1)NC(=O)[C@H](CO)NC(=O)[C@H](CC(C)C)NC(=O)[C@H](CCCNC(=N)N)NC(=O)[C@H](CCCNC(=N)N)NC(=O)[C@@H](NC(=O)[C@@H]1CCCN1C(=O)[C@H](C)NC(=O)[C@H](CC(=O)O)NC(=O)[C@H](CC(=O)O)NC(=O)CNC(=O)[C@H](Cc1c[nH]cn1)NC(=O)[C@H](Cc1ccc(O)cc1)NC(=O)[C@@H](NC(=O)[C@@H]1CCCN1C(=O)[C@H](Cc1c[nH]c2ccccc12)NC(=O)[C@H](CO)NC(=O)[C@H](CC(C)C)NC(=O)CN)[C@@H](C)O)C(C)C)C(=O)N[C@@H](CC(C)C)C(=O)N[C@@H](CC(C)C)C(=O)N[C@@H](CC(=O)O)C(=O)N[C@@H](CC(C)C)C(=O)N[C@@H](Cc1ccc(O)cc1)C(=O)N[C@@H](CC(C)C)C(=O)N[C@@H](CC(=O)O)C(=O)N[C@@H](C)C(=O)N1CCC[C@H]1C(=O)NCC(=O)N[C@H](C(=O)N[C@@H](CSCC(=O)Nc1ccc2c(c1)C(=O)OC21c2ccc(O)cc2Oc2cc(O)ccc21)C(N)=O)C(C)C
notes: also called PPKID5 (unphosphorylated)
In the test with HisKIX [1], B1 came in with a Kd of 6.6 µM.

Turning to GMSRVTPGGDDAPVRRLSFFYILRDLYLDAPGVC(acetamidofluorescein)-NH2 (designed binder, not fully specified, also called PPKID2 (unphosphorylated)) [PPKID2^U], in the test with HisKIX [1], the Kd worked out at 12.6 µM.

With GLSPYTEWGDDAPVRRLSFFYILLDLYLDAPGVC(acetamidofluorescein)-NH2 (designed binder) [PPKID7^U], the dissociation constant Kd with HisKIX [1] was 2.3 µM.

In the test with HisKIX [1], GASPHTSSGDDAPVRRLSFFDILLDLYLDAPGVC(acetamidofluorescein)-NH2 (designed binder, not fully specified, also called PPKID3 (unphosphorylated)) [PPKID3^U] registered a Kd of 6.7 µM. Also, in the test with HisKIX [2], the “fold change in affinity against peptide C^U” value fell in the range of 1 to 3 fold and the “ΔΔG relative to peptide C^U” value was -0.7 kcal/mol.

B2: PPKID5^P (designed binder)
peptide: GLSWPTYHGDDAPVRRL[pS]FFYILLDLYLDAPGVC(Fluorescein(5-NHCOCH2))-NH2
modifications: N-terminus assumed
SMILES: CC[C@H](C)[C@H](NC(=O)[C@H](Cc1ccc(O)cc1)NC(=O)[C@H](Cc1ccccc1)NC(=O)[C@H](Cc1ccccc1)NC(=O)[C@H](COP(=O)(O)O)NC(=O)[C@H](CC(C)C)NC(=O)[C@H](CCCNC(=N)N)NC(=O)[C@H](CCCNC(=N)N)NC(=O)[C@@H](NC(=O)[C@@H]1CCCN1C(=O)[C@H](C)NC(=O)[C@H](CC(=O)O)NC(=O)[C@H](CC(=O)O)NC(=O)CNC(=O)[C@H](Cc1c[nH]cn1)NC(=O)[C@H](Cc1ccc(O)cc1)NC(=O)[C@@H](NC(=O)[C@@H]1CCCN1C(=O)[C@H](Cc1c[nH]c2ccccc12)NC(=O)[C@H](CO)NC(=O)[C@H](CC(C)C)NC(=O)CN)[C@@H](C)O)C(C)C)C(=O)N[C@@H](CC(C)C)C(=O)N[C@@H](CC(C)C)C(=O)N[C@@H](CC(=O)O)C(=O)N[C@@H](CC(C)C)C(=O)N[C@@H](Cc1ccc(O)cc1)C(=O)N[C@@H](CC(C)C)C(=O)N[C@@H](CC(=O)O)C(=O)N[C@@H](C)C(=O)N1CCC[C@H]1C(=O)NCC(=O)N[C@H](C(=O)N[C@@H](CSCC(=O)Nc1ccc2c(c1)C(=O)OC21c2ccc(O)cc2Oc2cc(O)ccc21)C(N)=O)C(C)C
notes: also called PPKID5 (phosphorylated)
With B2, in the test with HisKIX [1], the dissociation constant (Kd) was found to be 0.534 µM.

B3: PPKID4^U (designed binder)
peptide: GPSQPTYPGDDAPVRRLSFFYILLDLYLDAPGVC(Fluorescein(5-NHCOCH2))-NH2
modifications: N-terminus assumed
SMILES: CC[C@H](C)[C@H](NC(=O)[C@H](Cc1ccc(O)cc1)NC(=O)[C@H](Cc1ccccc1)NC(=O)[C@H](Cc1ccccc1)NC(=O)[C@H](CO)NC(=O)[C@H](CC(C)C)NC(=O)[C@H](CCCNC(=N)N)NC(=O)[C@H](CCCNC(=N)N)NC(=O)[C@@H](NC(=O)[C@@H]1CCCN1C(=O)[C@H](C)NC(=O)[C@H](CC(=O)O)NC(=O)[C@H](CC(=O)O)NC(=O)CNC(=O)[C@@H]1CCCN1C(=O)[C@H](Cc1ccc(O)cc1)NC(=O)[C@@H](NC(=O)[C@@H]1CCCN1C(=O)[C@H](CCC(N)=O)NC(=O)[C@H](CO)NC(=O)[C@@H]1CCCN1C(=O)CN)[C@@H](C)O)C(C)C)C(=O)N[C@@H](CC(C)C)C(=O)N[C@@H](CC(C)C)C(=O)N[C@@H](CC(=O)O)C(=O)N[C@@H](CC(C)C)C(=O)N[C@@H](Cc1ccc(O)cc1)C(=O)N[C@@H](CC(C)C)C(=O)N[C@@H](CC(=O)O)C(=O)N[C@@H](C)C(=O)N1CCC[C@H]1C(=O)NCC(=O)N[C@H](C(=O)N[C@@H](CSCC(=O)Nc1ccc2c(c1)C(=O)OC21c2ccc(O)cc2Oc2cc(O)ccc21)C(N)=O)C(C)C
notes: also called PPKID4 (unphosphorylated)
Turning to B3, binding with HisKIX [1] was characterised by a dissociation constant (Kd) of 12.1 µM.

B4: PPKID8^U (designed binder)
peptide: GLSWKTDPGDDAPVRRLSFFYILLDLYLDAPGVC(Fluorescein(5-NHCOCH2))-NH2
modifications: N-terminus assumed
SMILES: CC[C@H](C)[C@H](NC(=O)[C@H](Cc1ccc(O)cc1)NC(=O)[C@H](Cc1ccccc1)NC(=O)[C@H](Cc1ccccc1)NC(=O)[C@H](CO)NC(=O)[C@H](CC(C)C)NC(=O)[C@H](CCCNC(=N)N)NC(=O)[C@H](CCCNC(=N)N)NC(=O)[C@@H](NC(=O)[C@@H]1CCCN1C(=O)[C@H](C)NC(=O)[C@H](CC(=O)O)NC(=O)[C@H](CC(=O)O)NC(=O)CNC(=O)[C@@H]1CCCN1C(=O)[C@H](CC(=O)O)NC(=O)[C@@H](NC(=O)[C@H](CCCCN)NC(=O)[C@H](Cc1c[nH]c2ccccc12)NC(=O)[C@H](CO)NC(=O)[C@H](CC(C)C)NC(=O)CN)[C@@H](C)O)C(C)C)C(=O)N[C@@H](CC(C)C)C(=O)N[C@@H](CC(C)C)C(=O)N[C@@H](CC(=O)O)C(=O)N[C@@H](CC(C)C)C(=O)N[C@@H](Cc1ccc(O)cc1)C(=O)N[C@@H](CC(C)C)C(=O)N[C@@H](CC(=O)O)C(=O)N[C@@H](C)C(=O)N1CCC[C@H]1C(=O)NCC(=O)N[C@H](C(=O)N[C@@H](CSCC(=O)Nc1ccc2c(c1)C(=O)OC21c2ccc(O)cc2Oc2cc(O)ccc21)C(N)=O)C(C)C
For the molecule B4, the Kd with HisKIX [1] worked out at 3.1 µM. Also, in the test with HisKIX [2], the “fold enhancement in affinity over KID-AB^U” value is ≥ 37 fold, the “fold enhancement in affinity over KID-B^U” value is ≥ 96 fold and the “fold enhancement in affinity over peptide C^U” value lay within 7 to 14 fold.

B5: PPKID6 S18E (designed binder)
peptide: GISWPTFEGDDAPVRRLEFFYILLDLYLDAPGVC(Fluorescein(5-NHCOCH2))-NH2
modifications: N-terminus assumed
SMILES: CC[C@H](C)[C@H](NC(=O)CN)C(=O)N[C@@H](CO)C(=O)N[C@@H](Cc1c[nH]c2ccccc12)C(=O)N1CCC[C@H]1C(=O)N[C@H](C(=O)N[C@@H](Cc1ccccc1)C(=O)N[C@@H](CCC(=O)O)C(=O)NCC(=O)N[C@@H](CC(=O)O)C(=O)N[C@@H](CC(=O)O)C(=O)N[C@@H](C)C(=O)N1CCC[C@H]1C(=O)N[C@H](C(=O)N[C@@H](CCCNC(=N)N)C(=O)N[C@@H](CCCNC(=N)N)C(=O)N[C@@H](CC(C)C)C(=O)N[C@@H](CCC(=O)O)C(=O)N[C@@H](Cc1ccccc1)C(=O)N[C@@H](Cc1ccccc1)C(=O)N[C@@H](Cc1ccc(O)cc1)C(=O)N[C@H](C(=O)N[C@@H](CC(C)C)C(=O)N[C@@H](CC(C)C)C(=O)N[C@@H](CC(=O)O)C(=O)N[C@@H](CC(C)C)C(=O)N[C@@H](Cc1ccc(O)cc1)C(=O)N[C@@H](CC(C)C)C(=O)N[C@@H](CC(=O)O)C(=O)N[C@@H](C)C(=O)N1CCC[C@H]1C(=O)NCC(=O)N[C@H](C(=O)N[C@@H](CSCC(=O)Nc1ccc2c(c1)C(=O)OC21c2ccc(O)cc2Oc2cc(O)ccc21)C(N)=O)C(C)C)[C@@H](C)CC)C(C)C)[C@@H](C)O
In the case of B5, in the test with HisKIX [1], the affinity, expressed as Kd, was 10.9 µM. Further, in the test with HisKIX [3], the “fold decrease in affinity against PPKID6^U” value was 7 fold and the “ΔΔG relative to PPKID6^U” value came to 1.2 kcal/mol.

H-GMSRVTPGGDDAPVRRL[pS]FFYILRDLYLDAPGVC(Fluorescein(5-NHCOCH2))-NH2 (designed binder, not fully specified, also called PPKID2 (phosphorylated)) [PPKID2^P] had a dissociation constant Kd with HisKIX [1] of 0.729 µM.

In the case of GASDMTYWGDDAPVRRL[pS]FFYILLDLYLDAPGVC(Fluorescein(5-NHCOCH2))-NH2 (designed binder, also called PPKID1 (phosphorylated)) [PPKID1^P], the Kd with HisKIX [1] was determined as 0.591 µM. In the test with HisKIX [2], the “fold enhancement in affinity upon phosphorylation” value was 6 to 41 fold, the “fold higher affinity than KID-B^P” value is 43 to 87 fold and the ΔΔG upon phosphorylation was -2.2 kcal/mol.

In the test with HisKIX [1], GASDMTYWGDDAPVRRLSFFYILLDLYLDAPGVC(acetamidofluorescein)-NH2 (designed binder, also called PPKID1 (unphosphorylated)) [PPKID1^U] came in with a Kd of 24.1 µM. Further, in the test with HisKIX [2], the “fold change in affinity against peptide C^U” value lay within 1 to 3 fold and the “ΔΔG relative to peptide C^U” value was determined as 0.1 kcal/mol.

B6: KID-B^P (peptide)
peptide: RRP[pS]YRKILNDLSSDAPGVC(acetamidofluorescein)-NH2
notes: also called KID-B (phosphorylated); CREB KID residues 130-148
On to B6, for which binding with HisKIX [1] was put at a Kd of 51.6 µM.

These data come from patent publication US20110028686A1 (published 2011).
